The assay concerns the target T1, mouse asialoglycoprotein receptor 1 (ASGR1), FLAG tagged, expressed on CHO-S cells (mouse, UniProt P34927 1-284).
T1 sequence (looked up): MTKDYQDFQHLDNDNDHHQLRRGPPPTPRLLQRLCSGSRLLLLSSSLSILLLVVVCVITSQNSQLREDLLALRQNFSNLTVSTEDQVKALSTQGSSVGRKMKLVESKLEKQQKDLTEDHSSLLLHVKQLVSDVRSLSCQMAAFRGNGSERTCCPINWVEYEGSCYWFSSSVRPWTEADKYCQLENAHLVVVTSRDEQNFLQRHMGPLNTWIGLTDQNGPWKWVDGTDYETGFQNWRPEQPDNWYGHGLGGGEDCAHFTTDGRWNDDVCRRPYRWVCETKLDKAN
The experiment in a line: flow cytometry on cells. On the technique in general: A flow cytometer gives signals particle by particle.

We go through one molecule from PMC11275528 (mAbs, 2024).

B1: asialofetuin (ligand)
chain: IPLDPVAGYKEPACDDPDTEQAALAAVDYINKHLPRGYKHTLNQIDSVKVWPRRPTGEVYDIEIDTLETTCHVLDPTPLANCSVRQQTQHAVEGDCDIHVLKQDGQFSVLFTKCDSSPDSAEDVRKLCPDCPLLAPLNDSRVVHAVEVALATFNAESNGSYLQLVEISRAQFVPLPVSVSVEFAVAATDCIAKEVVDPTKCNLLAEKQYGFCKGSVIQKALGGEDVRVTCTLFQTQPVIPQPQPDGAEAEAPSAVPDAAGPTPSAAGPPVASVVVGPSVVAVPLPLHRAHYDLRHTFSGVASVESSSGEAFHVGKTPIVGQPSIPGGPVRLCPGRIRYFKI
modifications: biotinylated (site not stated); desialylated with neuraminidase
On to B1, for which a half-maximal effect (EC50) was put at 53 nM.

Broadly, the EC50 is the concentration needed to bring the measured effect to its halfway point. A high value points to weaker potency.
